Biological target: JMJD6 full-length;BRD4 ET domain (human?;human, UniProt Q6NYC1;O60885 1-403;601-683, |)
Test: thermal shift (DSF); with BRD4 ET; Tm […] C (+[…] C vs JMJD6/ssRNA); DSF: PBS pH 7.4, 1 uM JMJD6, 1 uM oligonucleotide, ET 1-100 uM, SYPRO Orange, 25-95 C at 1 C/min

## AUACGAUGCUUUACGGUGCUAUUUUGU (ssRNA) [ssRNA 27-nt]
  binding result: binds

Source: paper PMC5701133
